Results published in patent US20140377288A1 (University of Texas, published 2014).

Target: T1, GST-hEphA5 (1-72 aa) (human, UniProt P54756 304-375)
T1 construct: also called first 72 amino acids of the region 304-467 of the hEphA5 protein fused to GST; not shown: Glutathione S-transferase (GST) fusion partner
T1 sequence: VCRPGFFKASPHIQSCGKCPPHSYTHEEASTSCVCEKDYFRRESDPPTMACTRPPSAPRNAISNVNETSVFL
Assay: ELISA with decreasing amount of 11C12 on GST fusion proteins
Experimental: FIG. 10: Further 11C12 epitope mapping on human EphA5. ELISA assays were performed with decreasing amount of 11C12 antibody in the presence of various portions of human EphA5 fused to GST. GST fusion proteins included EphA5 sequence from the regions corresponding to amino acids 304-467 (SEQ ID NO:3) and are numbered relative to this region. GST fusion proteins included GST-hEphA5 (1-24 aa) (SEQ ID NO:4); GST-hEphA5 (1-48 aa) (SEQ ID NO:5); GST-hEphA5 (1-72 aa) (SEQ ID NO:6); GST-hEphA5 (1-95 aa) (SEQ ID NO:7); GST-hEphA5 (1-120 aa) (SEQ ID NO:8); GST-hEphA5 (1-144 aa) (SEQ ID NO:9); and GST-hEphA5 (1-164 aa) (SEQ ID NO:10).
Epitope mapping was performed with protein fragments of human EphA5. […] This region is provided as SEQ ID NO:3. Further epitope mapping was performed by ELISA using fusion proteins including EphA5 sequences within the 304-467 region (FIG. 10).

binding result: binds
B1: 11C12 monoclonal anti-EphA5 antibody (antibody, mouse IgG1, V domains shown)
VH: EVTLKESGGGLVQPGGSRKLSCAASGFTFSTFGIHWVRQAPEKGLEWVAYISGASTTIYYADTVKGRFTISRDNPKNTLFLQMTSLRSEDTAMYYCARYGTSFPYGLDYWGQGTSVTVSS
VL: DIVMTQSPGSLAVSLGQRATISCKASQSVDYDGDSYMNWYQQKPGQPPKLLIYGASNLESGIPARFSGSGSGTDFTLNIHPVEEEDAASYYCQQSNEDPFTFGSGTKLEIK
notes: Murine IgG1 monoclonal antibody from a hybridoma; also called monoclonal antibody 11C12; 11C12 antibody
